Laboratory results: US20150037312A1 (University of Washington, published 2015)

Biological target: T1, Rituximab (human IgG1), biotinylated (human)
T1 construct: Whole IgG; In the first screen it was oligomerized with streptavidin-phycoerythrin; in SPR it was captured on a streptavidin chip; also called Rituxan; IgG1 Rituxan
Experiment: titration of biotinylated Rituxan on yeast displaying the clone; pH 8 implied
Description: We then determined the Kd of exemplary isolated clones for IgG at different pHs. Measurements were taken via titrations of biotinylated Rituxan (Rituximab) using yeast surface display as discussed in the materials and methods sections.
Yeast cells (EBY100) containing plasmid encoding the designs, were grown overnight at 30° C. in SDCAA medium. For induction, they were sub-cultured into SGCAA to achieve an O.D. of 1, and grown at 22° C. for 16-20 h. Cells were washed once with PBS containing 0.5% BSA (PBS-BSA), before adding 700 nM biotinylated IgG (Rituximab) into a total volume of 50 μl of the same buffer. […] Cells were washed once with ice cold PBS-BSA immediately before measuring their fluorescence via an Accuri C6 flow cytometer, data was analyzed using the FlowJo 7.6.1 and 8.8.7 software.

B1: FcB6.1 (designed binder)
chain: PEEALIVVDMQRDFMPGGALPVPEGDKIIPKVNEYIRKFKEKGALIVATRDWHPENHISFRERGGPWPRHCVQNTPGAEFVVDLPEDAVIISKATEPDKEAYSGFEGTDLAKILRGNGVKRVYICGVATEYCVSRTAVDALKHGFEVYLLRDAVKGIKPTFEQQSFFYMSLKGIKIVQF
notes: Clone from the pH 8 selection of the focused library; also called Fc24.47
- Kd: ~2 nM
